Target: CC-Gp047 (residues 1040–1365 of Gp047, putative receptor binding protein of C. jejuni phage NCTC12673) (Campylobacter jejuni phage NCTC12673)
Test: SDS-resistant oligomers (method not named; data not shown); data not shown; oligomers called SDS-resistant; construct and conditions not told

“CC-Gp047 (residues 1040–1365 of Gp047, putative receptor binding protein of C. jejuni phage NCTC12673) (domain or fragment)” was tested, and the stoichiometry N was over 3.

From article PMC3715477
